Assay results published in patent US20220033501A1 (SHANGHAI PHARMAEXPLORER, published 2022).
Residue numbers refer to the chain shown, from its start.

T1: TIM-3 protein on human peripheral blood mononuclear lymphocytes (PBMC) (human, UniProt Q8TDQ0 22-301)
T1 sequence: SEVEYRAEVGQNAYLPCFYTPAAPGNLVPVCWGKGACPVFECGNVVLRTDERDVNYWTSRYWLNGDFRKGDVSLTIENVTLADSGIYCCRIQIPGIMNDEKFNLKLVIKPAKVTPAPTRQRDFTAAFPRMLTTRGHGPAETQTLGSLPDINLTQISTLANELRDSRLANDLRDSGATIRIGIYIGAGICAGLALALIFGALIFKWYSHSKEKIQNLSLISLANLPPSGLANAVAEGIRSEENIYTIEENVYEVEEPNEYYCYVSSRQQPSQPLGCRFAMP

T2: monkey TIM-3 protein with hFc tag (cTIM-3-hFc protein) (monkey; human)
T2 construct: Made in HEK293 cells; also called monkey TIM-3 extracellular domain protein; not shown: human IgG Fc fragment (hFc) of the pCpC vector
T2 chain: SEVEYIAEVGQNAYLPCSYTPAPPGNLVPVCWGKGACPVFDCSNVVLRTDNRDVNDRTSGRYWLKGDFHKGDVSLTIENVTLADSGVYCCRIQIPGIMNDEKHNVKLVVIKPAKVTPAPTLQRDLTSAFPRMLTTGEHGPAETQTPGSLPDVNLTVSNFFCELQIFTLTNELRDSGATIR

T3: murine TIM-3 protein with hFc tag (mTIM-3-hFc protein) (mouse; human, UniProt Q8VIM0 29-191)
T3 construct: Made in HEK293 cells; also called mouse TIM-3 extracellular domain protein; not shown: human IgG Fc fragment (hFc) of the pCpC vector
T3 chain: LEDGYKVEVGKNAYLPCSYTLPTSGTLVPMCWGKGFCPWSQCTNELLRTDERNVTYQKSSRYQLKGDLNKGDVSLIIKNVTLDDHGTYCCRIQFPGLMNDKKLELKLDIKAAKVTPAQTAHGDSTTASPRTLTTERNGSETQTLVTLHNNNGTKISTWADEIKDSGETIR

T4: human TIM-3 extracellular domain protein with hFc tag (hTIM-3-hFc) (human, UniProt Q8TDQ0 22-200)
T4 construct: not shown: human IgG Fc fragment (hFc) of the pCpC vector
T4 sequence: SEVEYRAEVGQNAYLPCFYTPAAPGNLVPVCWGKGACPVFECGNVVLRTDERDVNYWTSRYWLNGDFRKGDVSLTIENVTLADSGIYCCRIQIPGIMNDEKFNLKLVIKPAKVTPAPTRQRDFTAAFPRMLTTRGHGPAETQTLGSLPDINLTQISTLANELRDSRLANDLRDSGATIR

T5: murine TIM-3 extracellular domain protein with hFc tag (mTIM-3-hFc) (mouse, UniProt Q8VIM0 29-191)
T5 construct: also called mouse TIM-3 extracellular domain protein; not shown: human IgG Fc fragment (hFc) of the pCpC vector
T5 chain: T3 chain

T6: monkey TIM-3 extracellular domain protein with hFc tag (cTIM-3-hFc) (monkey)
T6 construct: not shown: human IgG Fc fragment (hFc) of the pCpC vector
T6 chain: T2 chain

B1: 57F4E5 fully human TIM-3 antibody (human IgG4, kappa) (antibody, V domains shown)
VH: EVQLVESGGGLVQPGGSLRLSCAASGFTFSSYWMSWVRQAPGKGLEWVANIKQDGSEKYYVDSVKGRFTISRDSAKNSLYLQMNSLRAEDTAMYFCARDSNFFDYWGQGTLVTVSS
VL: ETVMTQSPATLSVSPGERATLSCRASQSVSSNLAWYQRKPGQAPRLLIYFSSTRATGIPARFSGSGSGTEFTLTISSLQSEDFAVYYCQQYNNWPLTFGGGTKVEIK
B2: 134H3G6 fully human TIM-3 antibody (human IgG4, kappa) (antibody, V domains shown)
VH: EVQLVESGGGLVQPGGSLRLSCAASGFTFSNSWMTWVRQAPGKGLEWVANIKQAGTEKYYVDSVKGRFTISRDNAKNSLYLQMNSLRAEDTAVYYCNSGSNYFDYWGQGTLVTVSS
VL: B1 VL with T2I, S26R, S28N, V29F, S30Y, R38Q, F50G, S51A
B3: 215A8F2 fully human TIM-3 antibody (human IgG4, kappa) (antibody, V domains shown)
VH: QVQLQQWGAGLLKPSETLSLTCTVYGGSFSGYYWNWIRQPPGKGLEWLGEINHSGSTNYNPSLKRRVTISVDTSKNQFSLKLSSVTAADTAVYYCARVYYYGPFDFWGQGTLVTVSS
VL: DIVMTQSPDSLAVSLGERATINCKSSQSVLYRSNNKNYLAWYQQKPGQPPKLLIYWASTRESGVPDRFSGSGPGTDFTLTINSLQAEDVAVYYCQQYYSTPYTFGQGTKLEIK
B4: 39E5H1 (TIM-3 antibody purified from hybridoma, chimeric antibody of Example 2) (antibody, V domains shown)
VH: EVQLVESGGGLVQPGGSLRLSCAASGFTFSSYWMSWVRQAPGKGLEWVANIKRGGSERYYVDSVKGRFTISGDNAKNSVYLQMNSLRAEDTAVYYCARGSNWFDPWGQGTLVTVSS
VL: B1 VL with T10I, S30Y, R38Q, P40L, F50D, S51A, L96I, G100Q, K103R, V104L
notes: From hybridoma of Harbour H2L2 transgenic mice: human variable regions, rat constant regions
B5: 134H3G6 (TIM-3 antibody purified from hybridoma, chimeric antibody of Example 2) (antibody, V domains shown)
VH: B2 VH
VL: B1 VL with T2I, S26R, S28N, V29F, S30Y, R38Q, F50G, S51A
notes: as for B4
B6: 57F4E5 (TIM-3 antibody purified from hybridoma, chimeric antibody of Example 2) (antibody, V domains shown)
VH: B1 VH
VL: B1 VL
notes: as for B4
B7: 18D2H2 (TIM-3 antibody purified from hybridoma, chimeric antibody of Example 2) (antibody, V domains shown)
VH: EVQLVESGGDLVQPGGSLRLSCAASGFTFSTYWMTWVRQAPGRGLEWVANIKQDGSAKYYVDSVKGRFTLSRDDAKNSLYLQMNSLRAEDTAVYYCARGSNWFDYWGQGTLVTVSS
VL: B1 VL with S26N, S28N, S30Y, R38Q, F50D, S51A, I58F
notes: as for B4
B8: 215A8F2 (TIM-3 antibody purified from hybridoma, chimeric antibody of Example 2) (antibody, V domains shown)
VH: B3 VH
VL: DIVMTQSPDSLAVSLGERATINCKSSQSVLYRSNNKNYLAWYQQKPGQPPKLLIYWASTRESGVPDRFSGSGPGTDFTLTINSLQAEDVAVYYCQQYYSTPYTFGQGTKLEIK
notes: as for B4
B9: 7A4F10 (TIM-3 antibody purified from hybridoma, chimeric antibody of Example 2) (antibody, V domains shown)
VH: EVQLLESGGGLVQPGGSLRLSCAASGFTFRTHLISWVRQAPGKGLEWVAAITGSGGSTYYADSVKGRFIISRDNSKNTLFLQMNSLRAEDTAVYYCAKDGGSGSYDDFWGQGTLVTVSS
VL: ETVLTQSPVTLSLSPGERATLSCRASQSVGSYLAWYQQKPGQAPRLLIYDASNRATGIPARFSGSGSGTDFTLTISSLEPEDFAVYYCQQRSNWPPTFGQGTKVEIK
notes: as for B4
B10: 34B6D8 (TIM-3 antibody purified from hybridoma, chimeric antibody of Example 2) (antibody, V domains shown)
VH: B4 VH with S31T, S35T, G44R, R53Q, S56G, E57D, R58K, G72T, V79L
VL: EIVMTQSPATLSMSPGERATLSCRASQSVYDNLAWYQQKPGQAPRLLIYGASTRATGIPARFSGSGSGTEFTLTISSLQSEDFALYYCQQYTHWPITFGQGTRLEIK
notes: as for B4

Target: T1, TIM-3 protein on human peripheral blood …
Assay: cell-based or functional assay

IFN-γ production (donor X); antibody 0.1 µg/ml, N = 1 [pg/mL] | IFN-γ production (donor X); antibody 0.1 µg/ml, N = 2 [pg/mL] | IFN-γ production (donor X); antibody 1 µg/ml, N = 1 [pg/mL] | IFN-γ production (donor X); antibody 1 µg/ml, N = 2 [pg/mL] | IFN-γ production (donor X); antibody 10 µg/ml, N = 1 [pg/mL] | IFN-γ production (donor X); antibody 10 µg/ml, N = 2 [pg/mL] | IFN-γ production (donor X); antibody '0' (4th head as printed), N = 1 [pg/mL] | IFN-γ production (donor X); antibody '0' (4th head as printed), N = 2 [pg/mL] | IFN-γ production (donor X); antibody '0' (5th head as printed), N = 1 [pg/mL] | IFN-γ production (donor X); antibody '0' (5th head as printed), N = 2 [pg/mL] | Binder
2800 | 2980 | 3550 | 3150 | 3080 | 3340 | 2870 | 2740 | 2160 | 2400 | B1
2610 | 2720 | 3250 | 2890 | 3460 | 3480 | 2390 | 2430 | 2510 | 2370 | B2
2410 | 3170 | 2780 | 2030 | 3000 | 2470 | 2100 | 2300 | 1970 | 2400 | B3

Target: T2, monkey TIM-3 protein with hFc tag …
Assay: ELISA, coated cTIM-3-hFc; antibody 0 nM (blank)
Source text: (§1) The amino acid sequence 22-200 of the extracellular domain of the human TIM-3 protein described in the step of Example 1 (as shown in SEQ ID NO. 71 in the sequence listing) was cloned into a pCpC vector having a human IgG Fc fragment (hFc), and transfected into HEK293 cells. The cell culture medium was collected, and purified to obtain the human TIM-3 protein with hFc tag (herein referred to as hTIM-3-hFc protein). The amino acid sequence 22-201 of the extracellular domain of the monkey TIM-3 protein (as shown in SEQ ID NO. 72 in the sequence listing) was cloned into a pCpC vector having a human IgG Fc fragment (hFc), and transfected into HEK293 cells. The cell culture medium was collected, and purified to obtain the monkey TIM-3 protein with hFc tag (herein referred to as cTIM-3-hFc protein). […] The cell culture medium was collected, and purified to obtain the murine TIM-3 protein with hFc tag (herein referred to as mTIM-3-hFc protein). Purified human, monkey, and mouse TIM-3 extracellular domain proteins (hTIM-3-hFc, cTIM-3-hFc, and mTIM-3-hFc) were diluted with PBS to a final concentration of 1.0 μg/ml and then added to a 96-well ELISA plate with 100 μl per well. The plate was sealed with plastic film and incubated overnight at 4° C. The plate was washed 4 times with the plate washing solution (PBS+0.01% Tween20) on the next day, and added with the blocking solution (PBS+0.01% Tween20+1% BSA) and sealed at room temperature for 1-2 hours. The blocking solution was poured out. 50-100 μl of the antibody sample to be tested was added to each well. The plate was incubated at 37° C. for 1-2 hours, and washed 2-3 times with plate washing solution (PBS+0. 01% Tween20). HRP (horseradish peroxidase) labeled secondary antibody was added. The plate was incubated at 37° C. for 1-2 hours, and washed 2-3 times with plate washing solution (PBS+0. 01% Tween20). […] of TMB substrate was added to each well. After incubated at room temperature for 15-30 minutes, the plate was added with […] stop solution (1.0N HCl) to each well. An ELISA plate reader (TiterMax 384plus, Molecular Device) was used to read the A450 nm value.

OD450 | Binder
0.59 | B4
0.55 | B5
0.56 | B6
0.55 | B7
0.57 | B8
0.54 | B9
0.58 | B10

Target: T3, murine TIM-3 protein with hFc tag …
Assay: ELISA, coated mTIM-3-hFc; antibody 0 nM (blank)
Source text: as §1

OD450 | Binder
0.62 | B4
0.64 | B5
0.64 | B6
0.62 | B7
0.63 | B8
0.63 | B9
0.66 | B10

Target: T4, human TIM-3 extracellular domain …
Assay: ELISA, coated human TIM-3 ECD protein, 0.0067 nM antibody

OD450 | Binder
0.23 | B1
0.27 | B2
0.27 | B3

Target: T4, human TIM-3 extracellular domain …
Assay: ELISA, coated human TIM-3 ECD protein, 0.0667 nM antibody

OD450 | Binder
1.22 | B1
1.28 | B2
1.29 | B3

Target: T4, human TIM-3 extracellular domain …
Assay: ELISA, coated human TIM-3 ECD protein, 6.6667 nM antibody

OD450 | Binder
2.91 | B1
2.81 | B2
2.86 | B3

Target: T5, murine TIM-3 extracellular domain …
Assay: ELISA, coated mouse TIM-3 ECD protein, 0.6667 nM antibody

OD450 | Binder
0.28 | B1
0.23 | B2
0.24 | B3

Target: T5, murine TIM-3 extracellular domain …
Assay: ELISA, coated mouse TIM-3 ECD protein, 66.667 nM antibody

OD450 | Binder
1.55 | B1
0.94 | B2
1.08 | B3

Target: T6, monkey TIM-3 extracellular domain …
Assay: ELISA, coated monkey TIM-3 ECD protein, 0.6667 nM antibody

OD450 | Binder
3.15 | B1
3.1 | B2
3.05 | B3
